Data on four molecules can be found in paper PMC5727402, “Structure of the large terminase from a hyperthermophilic virus reveals a unique mechanism for oligomerization and ATP hydrolysis” (Nucleic Acids Research, 2017).

“And” between values parts separate entries of the source, which are not always exact repeats. Equal values may be shown once.

Data set [1] concerns Nc1ncnc2c1ncn2[C@@H]1O[C@H](COP(=O)(O)OP(=O)(O)OP(=O)(O)O)[C@@H](O)[C@H]1O. Description: purified protein. Conditions: 10 mM HEPES pH 7.5, 50 mM potassium glutamate, 10 mM MgCl2, room temperature, 4.5 μM protein.
In data set [2] the target is D6E large terminase ATPase domain (1–234) (Geobacillus stearothermophilus bacteriophage D6E). Description: SEC; ATPase domain alone (Supplementary Figure S1C); conditions not shown. On the technique in general: SEC sorts molecules by how far they enter the pores of the column.
Data set [3] addresses T1, full-length D6E large terminase (1–427) (synthetic construct, UniProt Z9WCS4P2M6).
T1 construct: full length residues 1-427; N-terminal His6-3C tag cleaved; codon-optimized synthetic gene, E. coli BL21-Gold(DE3); monomer by SEC, monomer to pentamer by AUC, active oligomer proposed pentameric
T1 sequence (Z9WCS4P2M6 4-430): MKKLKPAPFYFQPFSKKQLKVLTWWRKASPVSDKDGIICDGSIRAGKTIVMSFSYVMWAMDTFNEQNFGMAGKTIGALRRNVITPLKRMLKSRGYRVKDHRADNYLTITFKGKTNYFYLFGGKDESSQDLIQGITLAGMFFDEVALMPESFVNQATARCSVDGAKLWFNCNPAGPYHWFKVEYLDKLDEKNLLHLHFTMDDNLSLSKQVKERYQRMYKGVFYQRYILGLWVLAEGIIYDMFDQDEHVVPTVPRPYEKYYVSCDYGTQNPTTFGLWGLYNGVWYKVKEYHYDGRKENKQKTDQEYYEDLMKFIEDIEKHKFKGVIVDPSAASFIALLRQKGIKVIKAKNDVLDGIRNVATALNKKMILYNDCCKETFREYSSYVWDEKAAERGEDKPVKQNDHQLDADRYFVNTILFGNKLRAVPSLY
Description: thermal shift assay (SYPRO Orange). The class given is binding. The note with it: 5 mM nucleotide, 5 mM MgCl2, 5 mM HEPES pH 7.5, 5 mM potassium glutamate, 5 μM protein.

The term Km denotes the concentration of substrate that gives half-maximal velocity. As usually defined, the kcat is the maximal rate divided by the concentration of active sites. Take “C-terminally truncated protein (1–417) (synthetic construct)”: in data set [1], the Km was 196.72 ± 8.0 µM and the kcat worked out at 3.50 ± 0.04 min⁻¹. The stoichiometry N is a count of units in the complex or per binding partner. Take “D6E large terminase ATPase domain (1–234) (domain or fragment)”: the stoichiometry N in data set [2] is 4 and 5. Broadly, the ΔTm is the change in melting temperature against a reference sample. For the molecule `Nc1ncnc2c1ncn2[C@@H]1O[C@H](COP(=O)(O)OP(=O)(O)OP(O)(O)=S)[C@@H](O)[C@H]1O` [ATP-γ-S], in data set [3], the ΔTm came to 7.8 °C. On the same count and under the same terms, as for `Nc1ncnc2c1ncn2[C@@H]1O[C@H](COP(=O)(O)OP(=O)(O)O)[C@@H](O)[C@H]1O` [ADP], the figure is 2.3 °C.
